Target: human LDLR, endogenous on HUVEC (human (endogenous in HUVEC)) (UniProt P01130)
Experiment: flow cytometry on cells; 1.10^10 phage on 1.10^6 HUVEC, 20 min on ice, without or with LDL at 0.5 mg/mL; anti-M13 (anti-PVIII) and anti-hLDLR antibodies; signal in zone Q2

human LDLR, endogenous on HUVEC (human (endogenous in HUVEC)), sequence (P01130 22-860): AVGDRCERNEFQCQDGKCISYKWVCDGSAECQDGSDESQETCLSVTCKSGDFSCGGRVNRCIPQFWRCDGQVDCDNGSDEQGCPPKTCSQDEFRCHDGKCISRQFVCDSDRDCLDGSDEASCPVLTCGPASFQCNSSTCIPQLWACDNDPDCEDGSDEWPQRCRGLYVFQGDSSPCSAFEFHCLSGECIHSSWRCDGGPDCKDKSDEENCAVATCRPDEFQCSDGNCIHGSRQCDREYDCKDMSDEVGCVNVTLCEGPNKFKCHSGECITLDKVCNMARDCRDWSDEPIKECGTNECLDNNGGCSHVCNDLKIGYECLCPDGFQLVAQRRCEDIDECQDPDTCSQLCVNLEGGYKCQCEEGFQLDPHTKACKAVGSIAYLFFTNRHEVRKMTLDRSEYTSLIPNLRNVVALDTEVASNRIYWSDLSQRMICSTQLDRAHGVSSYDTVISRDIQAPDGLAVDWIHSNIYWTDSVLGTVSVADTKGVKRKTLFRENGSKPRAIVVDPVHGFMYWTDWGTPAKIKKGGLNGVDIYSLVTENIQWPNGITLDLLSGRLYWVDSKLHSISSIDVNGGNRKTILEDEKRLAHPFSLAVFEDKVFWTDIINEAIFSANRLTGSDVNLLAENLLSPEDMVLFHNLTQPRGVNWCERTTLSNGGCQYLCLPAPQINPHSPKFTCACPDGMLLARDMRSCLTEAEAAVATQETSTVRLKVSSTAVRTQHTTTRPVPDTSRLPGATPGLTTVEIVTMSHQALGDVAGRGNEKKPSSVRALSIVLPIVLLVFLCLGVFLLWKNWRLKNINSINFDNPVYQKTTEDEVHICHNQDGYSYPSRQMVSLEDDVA

percent reduction of the VH549 phage signal (Q2) with LDL at 0.5 mg/mL: 56%
Substance: low-density lipoprotein (LDL), P04114 28-4563

Source: publication PMC5828360, “Identification and characterization of highly versatile peptide-vectors that bind non-competitively to the low-density lipoprotein receptor for in vivo targeting and delivery of small molecules and protein cargos” (PLoS ONE, 2018)
